System: MS2 coat protein
Test: apparent KD of MS2 coat protein; designed switch direction (-1 OFF switch, 1 ON switch): -1; higher = weaker reporter binding
Method in brief: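 Stalled E. coli RNA polymerase transcribed designed RNA switches on Illumina chips, which were then titrated with SNAP-549-labelled MS2 coat protein, doubling from 0.7 or 1.5 nM to 3 µM. Steps lasted from 0.8–1.5 h at the lowest concentration to 10–20 min at the highest. The apparent KD is each design's median over clusters of curve-fitted normalised fluorescence.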

[1] = input ligand: microRNA oligo, concentration not stated
[2] = Eterna round: R95, input ligand: FMN 200 uM
[3] = Eterna round: R95, input ligand: microRNA oligo, concentration not stated
[4] = Eterna round: R95, input ligand: none

Sequence	apparent KD of MS2 coat protein (input ligand: FMN 200 uM)	apparent KD of MS2 coat protein (input ligand: none)	apparent KD of MS2 coat protein [1]	apparent KD of MS2 coat protein [2]	apparent KD of MS2 coat protein [3]	apparent KD of MS2 coat protein [4]
CAAAAGCUAGGAUAUACACAAAACGCCUGCAUGCAAACAUCACAUGAGGAUCACCCAUGUAGAAGGAGCGGAAA [EX2 A.21] (Eterna round: R97, puzzle: Exclusion 2)	22.1 nM	19.1 nM	–	–	–	–
AAACCCUGAGGAUAUAGAUAACAACAAAGCCUCACGUGCCAACAUGAGGAUCACCCAUGUAGAAGGCAGGCCAA [Mod R3 Insanara 4 - Jieux - Exclusion 2] (Eterna round: R97, puzzle: Exclusion 2)	14.7 nM	17.2 nM	–	–	–	–
AUAUUGUGAGGAUAUGAAGUUAGUAUCGAAAGAUACUAAGUUCAGAAGGCACAUGAGGAUCACCCAUGUUUCUC [Long static hairpin v4] (Eterna round: R97, puzzle: Exclusion 4)	710 nM	71.5 nM	–	–	–	–
CGAUGCACGAGUCCACAUGAGGAUCACCCAUGUCGUGUUAGCGAGGAUAUCGGAGACACAUAGUAUGAGAAGGCGCGAACCUGA [Ex NG3 #21] (Eterna round: R96, puzzle: Exclusion NG 3)	16.4 nM	13.4 nM	11.2 nM	–	–	–
CUAGAUCUUCGGAUCUAGUACAUGAGGAUCACCCAUGUGACGAGUAGAUCCUCAAACAAGCUUUUUGCUCGUCUUAU [Sensor v3 - Turn-off variant 1 - 20] (puzzle: Sensor v3, turn-off variant 1)	–	–	–	43.3 nM	9.51 nM	111 nM
AUAUACAAGCAAAGAUCCUACAUGAGGAUCACCCAUGUGUUCGUCUUAUAAAGUACUAUCACGAAAGUGAUAGUACA [Mat - Sensor v3 - turn-off var 1 - Eli Mod - D80] (puzzle: Sensor v3, turn-off variant 1)	–	–	–	161 nM	6.99 nM	87.8 nM
CGAGUGUAAGGAUAUUCGGCGCCAGAGAACGAUCUGACGUAGAAGAAGGUACAUGAGGAUCACCCAUGUGGUUA [Geinzarace] (puzzle: Exclusion 4)	–	–	–	41.6 nM	102 nM	204 nM
UCACGGGACUGAGGAUAUACAUUUAUUAUUUUAGUAGAAGGCAGAAAGUUAGUUUUUUCACUAUACAUGAGGAUCACCCAUGUU [JR_ExcNG1_Sub085] (Eterna round: R96, puzzle: Exclusion NG 1)	21.2 nM	29.1 nM	20.4 nM	–	–	–
AAUGUCCAACGAGGAUAUGGGAAAGGAAGUGUACCAGAAGGCGUACGGACAUGAGGAUCACCCAUGUCGCGCGGCGCGAUGUGG [PowerStrip EXNG 1.14] (Eterna round: R96, puzzle: Exclusion NG 1)	80.9 nM	52.7 nM	46.4 nM	–	–	–
GAUUGACAUGAGGAUCACCCAUGUGAGGAUAUCGGCUGGUACGUGUUGGCUUGCCUCUCGAGAAGGCGCAUAGG [Exclusion 1 V55] (puzzle: Exclusion 1)	–	–	–	140 nM	38.5 nM	63.1 nM
CUAGCGAGUGUAGGAUAUCGGACUGUUUCAGUCUGAGAAGGACAUGAGGAUCACCCAUGUGUAGCUACGUGAGUAGCACGCUAG [JL ENG1 3.88] (Eterna round: R96, puzzle: Exclusion NG 1)	40.2 nM	22.3 nM	15 nM	–	–	–
CUGUUCCGUGUAGGAUAUGCAUAUUCUCAUUAUGCAGAAGGACAUGAGGAUCACCCAUGUAUGUUAUUAUCAUGUGUUACAUGC [Design 7] (Eterna round: R96, puzzle: Exclusion NG 1)	220 nM	38.8 nM	35.9 nM	–	–	–
GGUCAGCUAGGAUAUACAUGAGGAUCACCCAUGUACUGACCCAUGCGGGAAUCCGCGUGUAGAAGGAGCAAAAG [jl-ex3-4.60 ViennaUCT mod] (Eterna round: R97, puzzle: Exclusion 3)	33 nM	32.5 nM	–	–	–	–
CUCCUCGUGGCGCCUAAACACAUGAGGAUCACCCAUGUACAGGCUUUUUGCCGUCUUACAAUAAAACCGAGGAUACG [Inveon] (puzzle: Sensor v3, turn-off variant 1)	–	–	–	19.8 nM	50.8 nM	20.4 nM
GUAAUAGUGGUUAGGAUAUGCGAUCGAAAAUAGGUGCAGAAGGAACAUGAGGAUCACCCAUGUGCCUCCUCAAU [Eternabot (L1) Solution 6] (Eterna round: R97, puzzle: Brourd's mod of Exclusion 4)	24.2 nM	15.6 nM	–	–	–	–
CCCUCACAUGAGGAUCACCCAUGUCAGGAUAUCUCACAUCGGCCUUAGGCCAAUGUCAAGAGAAGGGACGUAUC [Usanvequin] (puzzle: Exclusion 1)	–	–	–	–	21.7 nM	–
UGUCAGAUGGUAGGAUAUCCAUAUCGAGUGACCCUUUCUUAACAUGAGGAUCACCCAUGUCGGUGGGAGAAGGGCCGUAUGGUG [salish99_ExNG02_R04_032] (Eterna round: R96, puzzle: Exclusion NG 2)	31.4 nM	29.9 nM	24 nM	–	–	–

Sequence	apparent KD of MS2 coat protein (input ligand: FMN 200 uM)	apparent KD of MS2 coat protein (input ligand: none)	apparent KD of MS2 coat protein [1]	apparent KD of MS2 coat protein [2]	apparent KD of MS2 coat protein [3]	apparent KD of MS2 coat protein [4]
GUCUCGUGAGGAUAUGACGCUACUUUUUUGUUUUAGUAGAGUCAGAAGGCACAUGAGGAUCACCCAUGUGAUUC [Ex4 - 3 - 4] (puzzle: Exclusion 4)	–	–	–	–	56 nM	–
CUUUUGUGAGGAUAUCAUUAGUAAAAAAAUAAAAUUACUACUGAGAAGGCACAUGAGGAUCACCCAUGUUCCUC [salish99_ex4_r3_034] (puzzle: Exclusion 4)	–	–	–	–	37.6 nM	–
AAAUAAACAAGCAACUCGAACAUGAGGAUCACCCAUGUAAAGGGUGAAUCGUCCACCCAAAAAAAAAAUAAAAAAAA [Mat - Sensor v2 - Eli mod - 132] (Eterna round: R96, puzzle: Sensor v2, turn-off variant)	57.7 nM	55.9 nM	116 nM	–	–	–
AAUUCCGUAGGAUAUGGGAACCGGGACAUGAGGAUCACCCAUGUGAAGGAUGUCCCAACACCAGAAGGACGCAGCA [EX5 A.14] (Eterna round: R97, puzzle: Exclusion 5)	47 nM	25.9 nM	–	–	–	–
GGAUCUACUGAGGAUAUUAUAUCACCCGACUGAUAAGAAGGCAGUACAUGAGGAUCACCCAUGUGGGUAGCCAU [Polaris8] (Eterna round: R97, puzzle: Exclusion 6)	64.3 nM	34.8 nM	–	–	–	–
GUUAUGUCAGGAUAUGCUAAUGAUGAGUGCUCAGACAUGAUGCAGAAGGGACAUGAGGAUCACCCAUGUACUAA [EX4 #11] (Eterna round: R97, puzzle: Exclusion 4)	116 nM	36.1 nM	–	–	–	–
CAGCCAAGUGUGAGGAUAUGGCGAUUGCAUUGACGUCAGAAGGCACAUGAGGAUCACCCAUGUGAGGUGGAUGA [Eternabot (L2) Solution 25] (Eterna round: R97, puzzle: Brourd's mod of Exclusion 4)	45.8 nM	755 nM	–	–	–	–
AAGAAACAUGAGGAUCACCCAUGUGAGGAUAUGAAAAAGAAAAGAAAAGAAAGAAGCAUCAGAAGGCACAAAGG [salish99-ex1_r3_026] (puzzle: Exclusion 1)	–	–	–	36.1 nM	32.1 nM	31.1 nM
AAAGAAAAGAAAGGAUAUAGCGCAGAACCGCAGCUAGAAGGUUCGGUGGGUAUCCUGUAACAUGAGGAUCACCCAUGUAAAGAG [Tire] (Eterna round: R96, puzzle: Exclusion NG 1)	69.9 nM	55.7 nM	48.7 nM	–	–	–
GAGUACUGAGGAUAUACAUGAGGAUCACCCAUGUGUUCCAACUAGGAAUCUAGAGUAUGUAGAAGGCAGUGCUG [salish99_ex3_r4_704] (Eterna round: R97, puzzle: Exclusion 3)	145 nM	130 nM	–	–	–	–
AACGAGGCAGGAUAUACAUGAGGAUCACCCAUGUGCUUGCAUGGCGUGGGAAGUCAUCGUAGAAGGGCUAUGCC [EX3 #64] (Eterna round: R97, puzzle: Exclusion 3)	210 nM	283 nM	–	–	–	–
CUAGAUCUUCGGAUCUAGGACAUGAGGAUCACCCAUGUCACGAGCAGAUCUUCAUGCAAGCUUUUUGCUCGUCUUAU [Sensor v3 - Turn-off variant 1 - 37] (Eterna round: R96, puzzle: Sensor v3, turn-off variant 1)	27 nM	29.2 nM	339 nM	–	–	–
UUUUAACAUGAGGAUCACCCAUGUGAGGAUAUCGAUUUUUUUAUUAAUAUUAAUAAAACGAGAAGGCACAUUUU [JMF 19] (puzzle: Exclusion 1)	–	–	–	–	73.5 nM	–
GGUCAGAUGGUAGGAUAUUUAUAUCGAGUGACCCUUUCAUAACAUGAGGAUCACCCAUGUCGGUGGGAGAAGGGCCGUACGGCG [salish99_ExNG02_R04_013] (Eterna round: R96, puzzle: Exclusion NG 2)	37.7 nM	45.7 nM	33.1 nM	–	–	–
AAGAACGGUAAGGAUAUCCAUGUGAAAUAAAGAGGAGAAGGUACCACAUGAGGAUCACCCAUGUGGCUCUCAAA [EX6 B.30] (Eterna round: R97, puzzle: Exclusion 6)	13.8 nM	11.5 nM	–	–	–	–
UGUUGUUCAGGAUAUGGUGUGUUUUACAUGAGGAUCACCCAUGUGGGUCCUGGUUUGGCGUCAGAAGGGAAUGUUG [salish99_ex5_r4_117] (Eterna round: R97, puzzle: Exclusion 5)	788 nM	1040 nM	–	–	–	–
